These results are taken from paper PMC5737660.

The target of assay [1] is CdiI^NC101-His6 immunity protein, crystallography construct (E. coli NC101). Briefly: crystal structure.
Assay [2] has the same target. Briefly: crystal structure. The source holds these as a separate data set.

Like-named read-outs stand apart in the source and are kept apart here.

As to “CdiI^NC101-His6 immunity protein, crystallography construct (natural protein)”, the stoichiometry N in assay [1] and in assay [2] was 2 each time.

By stoichiometry N is commonly meant a count of units in the complex or per binding partner.
